Values belong to the binder of their own block, whether it stands above or below them.
What was measured:
[1] = target: T1, Lymphocyte antigen 6 family member K (LY6K) expressed on the cell surface of human cells (human, UniProt Q17RY6 18-138); experiment: flow cytometry on human cancer cell lines
T1 construct: whole, on cells; overexpressed in HEK293T for ADCC; also called LY6K on Ca Ski, Calu-1 and other human cancer cell lines; HEK293T-Ly6K overexpressing cells
T1 sequence (looked up): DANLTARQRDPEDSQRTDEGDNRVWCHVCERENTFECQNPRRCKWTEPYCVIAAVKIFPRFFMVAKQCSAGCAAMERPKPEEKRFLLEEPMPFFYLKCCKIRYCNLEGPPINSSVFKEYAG

[2] = target: T1, Lymphocyte antigen 6 family member K …; experiment: flow cytometry on Calu-1 cells

binding result [1]: binds
B1: murine anti-LY6K antibody G57 (antibody, V domains shown)
VH: EVQLVESGGDLVKPGGSLKLSCAASGFTFNSYGMSWVRQTPDKRLEWVATISSGGTYTYYSDSVKGRFTISRDNAKNILYLHMSSLKSEDTAMYYCARHDWDFFDYWGQGTTLTVSS
VL: DVVMTQTPLSLPVSLGDQASISCRSSQSLVHTDGDTYLNWYLQKPGQSPKLLIYKVSNRFSGVPDRFSGSGSGTDFTLKIRRVEAEDLGVYFCSQNTHVYTFGGGTKLE
notes: Hybridoma-derived; also called Ms G57

binding result [2]: binds
B2: humanized 22C-G8 (antibody, V domains shown)
VH: QVQLVQSGAEVKKPGASVKVSCKASGYTFTSYWMHWVRQAPGQGLEWIGEINPSNGGANYNEKFKRRATMTVDKSTSTVYMELSSLRSEDTAVYYCTMGGNFFFAYWGQGTLVTVSS
VL: DVVMTQSPLSLSVTLGQPASISCKSSQSLLASDGKTYLNWFQQRPGQSPRRLIYLVSKLDSGVPDRFSGSGSGTDFTLKISRVEAEDVGVYYCWQGSHFPLTFGGGTKVE
notes: CDR-grafted into human frameworks; also called Hu22C-G8; Hu 22C-G8

— patent US20250304712A1 (NATIONAL UNIVERSITY OF SINGAPORE, published 2025)
